Measurements as given in IntAct's records for PubMed 18566586.

B1: RAC-alpha serine/threonine-protein kinase (Mus musculus), P31750 (parent)
chain: MNDVAIVKEGWLHKRGEYIKTWRPRYFLLKNDGTFIGYKERPQDVDQRESPLNNFSVAQCQLMKTERPRPNTFIIRCLQWTTVIERTFHVETPEEREEWATAIQTVADGLKRQEEETMDFRSGSPSDNSGAEEMEVSLAKPKHRVTMNEFEYLKLLGKGTFGKVILVKEKATGRYYAMKILKKEVIVAKDEVAHTLTENRVLQNSRHPFLTALKYSFQTHDRLCFVMEYANGGELFFHLSRERVFSEDRARFYGAEIVSALDYLHSEKNVVYRDLKLENLMLDKDGHIKITDFGLCKEGIKDGATMKTFCGTPEYLAPEVLEDNDYGRAVDWWGLGVVMYEMMCGRLPFYNQDHEKLFELILMEEIRFPRTLGPEAKSLLSGLLKKDPTQRLGGGSEDAKEIMQHRFFANIVWQDVYEKKLSPPFKPQVTSETDTRYFDEEFTAQMITITPPDQDDSMECVDSERRPHFPQFSYSASGTA

Variants of: B1
Conditions: with hs90a_mouse Hsp90aa1, P07901

effect of a mutation on the interaction	Variant
increasing interaction	T443A

Variants of: B1
Conditions: with hs90a_mouse Hsp90aa1, P07901
Remark: another data set of the same source

effect of a mutation on the interaction	Variant
increasing interaction	K182M
increasing interaction	R222M

Variants of: B1
Conditions: with hs90a_mouse Hsp90aa1, P07901
Remark: another data set of the same source

effect of a mutation on the interaction	Variant
increasing interaction	K163M

Variants of: B1
Conditions: with hs90a_mouse Hsp90aa1, P07901
Remark: another data set of the same source

effect of a mutation on the interaction	Variant
increasing interaction	T450A
